In US20220064644A1 (TAIPEI MEDICAL UNIVERSITY, published 2022):
Residue numbers refer to the chain shown, from its start. Names and notes keep the numbering of the source.

B1: wild-type PIAS1 (Homo sapiens protein inhibitor of activated STAT 1) (protein)
chain: MADSAELKQMVMSLRVSELQVLLGYAGRNKHGRKHELLTKALHLLKAGCSPAVQMKIKELYRRRFPQKIMTPADLSIPNVHSSPMPATLSPSTIPQLTYDGHPASSPLLPVSLLGPKHELELPHLTSALHPVHPDIKLQKLPFYDLLDELIKPTSLASDNSQRFRETCFAFALTPQQVQQISSSMDISGTKCDFTVQVQLRFCLSETSCPQEDHFPPNLCVKVNTKPCSLPGYLPPTKNGVEPKRPSRPINITSLVRLSTTVPNTIVVSWTAEIGRNYSMAVYLVKQLSSTVLLQRLRAKGIRNPDHSRALIKEKLTADPDSEIATTSLRVSLLCPLGKMRLTIPCRALTCSHLQCFDATLYIQMNEKKPTWVCPVCDKKAPYEHLIIDGLFMEILKYCTDCDEIQFKEDGTWAPMRSKKEVQEVSASYNGVDGCLSSTLEHQVASHHQSSNKNKKVEVIDLTIDSSSDEEEEEPSAKRTCPSLSPTSPLNNKGILSLPHQASPVSRTPSLPAVDTSYINTSLIQDYRHPFHMTPMPYDLQGLDFFPFLSGDNQHYNTSLLAAAAAAVSDDQDLLHSSRFFPYTSSQMFLDQLSAGGSTSLPTTNGSSSGSNSSLVSSNSLRESHSHTVTNRSSTDTASIFGIIPDIISLD
B2: PIAS1 gene variant 3 (PIAS1^S510G) (protein)
chain: B1 chain with S510G
B3: 6xHis-S/T rich region only of PIAS1 (other, human, UniProt O75925 480-651, looked up)
chain: TCPSLSPTSPLNNKGILSLPHQASPVSRTPSLPAVDTSYINTSLIQDYRHPFHMTPMPYDLQGLDFFPFLSGDNQHYNTSLLAAAAAAVSDDQDLLHSSRFFPYTSSQMFLDQLSAGGSTSLPTTNGSSSGSNSSLVSSNSLRESHSHTVTNRSSTDTASIFGIIPDIISLD
notes: domain: S/T rich region; Purified recombinant protein from BL21 cells; also called S/T only; S/T-only PIAS1; not shown: 6xHis tag from the pRSETA-6xHis vector

Columns and labels:
GST-Q43-HTTEX1, P42858 = target: T1, GST-Q43-HTTEX1, P42858
T1 chain: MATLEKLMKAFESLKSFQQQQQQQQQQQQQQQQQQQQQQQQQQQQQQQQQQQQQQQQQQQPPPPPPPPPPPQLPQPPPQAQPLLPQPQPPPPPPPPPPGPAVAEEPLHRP

[1] = target: ATXN3-84Q (mutant ATXN3), P54252
[2] = target: ATXN3-28Q (normal ATXN3), P54252
GST protein = target: T2, GST protein (UniProt P08515 1-218 = GST); experiment: GST pull-down with purified recombinant proteins, Western blot
T2 construct: Negative control in the pull-down assays
Procedure: The indicated lysates (1 mg) were incubated with purified recombinant GST or GST-Q₂₅-HTTEX1 protein as indicated for 60 min at 4° C. to allow complex formation. GST served as a negative control. The protein complexes were analyzed by Western blotting. The amount of PIAS1-domain-deletion mutant was normalized to the corresponding bait (GST-Q₂₅-HTTEX1 protein). The data are presented as the mean±SEM (N=4). **p<0.001 and ****p<0.0001 by one-way ANOVA. (FIG. 12 (C)) Purified recombinant 6×His-S/T rich region only of PIAS1 was incubated with purified recombinant GST or GST-Q₂₅-HTTEX1 protein for 60 min at 4° C. GST served as a negative control. The protein complexes were analyzed by Western blotting. The red arrowhead and yellow arrowhead mark the GST-Q₂₅-HTTEX1 and GST proteins, respectively. The data shown here represent three independent experiments.
GST Pull-down Assay. Cell lysates were harvested using a nondenaturing lysis buffer (137 mM NaCl, 1% NP-40, 20 mM Tris pH 8.0, and 1 mM EDTA) containing a protease inhibitor cocktail and 1× phosphatase inhibitor cocktail (Roche) and subjected to rotation at 4° C. for 1 hr. […] The bound proteins were analyzed with SDS-PAGE and Western blotting. […]

T2 sequence (P08515 whole entry): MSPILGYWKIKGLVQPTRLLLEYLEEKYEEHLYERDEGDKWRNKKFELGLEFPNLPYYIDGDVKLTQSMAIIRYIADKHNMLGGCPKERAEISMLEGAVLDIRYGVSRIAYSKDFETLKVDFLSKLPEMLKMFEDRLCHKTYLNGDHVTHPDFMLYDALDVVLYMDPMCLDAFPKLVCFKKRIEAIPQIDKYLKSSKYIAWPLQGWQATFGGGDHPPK
Chain of ATXN3-28Q (normal ATXN3), P54252 (P54252 whole entry, looked up, tested part not stated): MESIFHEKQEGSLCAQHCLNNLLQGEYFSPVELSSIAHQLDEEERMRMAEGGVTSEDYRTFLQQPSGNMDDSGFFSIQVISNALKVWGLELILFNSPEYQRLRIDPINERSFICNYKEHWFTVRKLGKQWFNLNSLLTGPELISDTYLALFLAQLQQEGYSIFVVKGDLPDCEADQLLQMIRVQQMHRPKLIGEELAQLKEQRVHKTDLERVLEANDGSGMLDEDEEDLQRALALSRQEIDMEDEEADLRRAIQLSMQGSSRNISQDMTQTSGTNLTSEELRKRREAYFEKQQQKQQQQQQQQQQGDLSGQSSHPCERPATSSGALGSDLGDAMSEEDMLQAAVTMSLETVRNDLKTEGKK
Chain of ATXN3-84Q (mutant ATXN3), P54252 (P54252 whole entry, looked up, change not shown, tested part not stated): as the sequence (P54252 whole entry, looked up, tested part not stated) above

Row | Binder | in vitro SUMOylation of GST-Q43-HTTEX1 (Western blot shift) (GST-Q43-HTTEX1, P42858) | in vitro SUMOylation assay (SUMO3 conjugation of ATXN3) [1] | in vitro SUMOylation assay (SUMO3 conjugation of ATXN3) [2] | binding result (GST protein)
1 | B1 | The addition of PIAS1^WT enhanced the SUMOylation of GST-Q43-HTTEX1 | When PIAS1 and ATP (ATP is necessary for SUMOylation activation) participated the reaction process, formed ATXN3 SUMO conjugation (FIG. 6 (B)), both normal and mutant ATXN3 | When PIAS1 and ATP (ATP is necessary for SUMOylation activation) participated the reaction process, formed ATXN3 SUMO conjugation (FIG. 6 (B)), both normal and mutant ATXN3 | 
2 | B2 | Compared with PIAS1^WT, PIAS1^S510G induced a much lower level of SUMOylation of GST-Q43HTTEX1 |  |  | 
3 | B3 |  |  |  | no binding
